# Source: publication PMC11931385, “Structural and functional analysis of cancer-associated missense variants in the retinoblastoma protein pocket domain” (The Journal of Biological Chemistry, 2025)
# Substitutions are numbered along the chain they refer to. Names and notes keep the numbering of the source. No end group written: not given here. TMR = tetramethyl rhodamine dye
# T1: Rb^P H585Y (human, UniProt P06400 380-788, H585Y)
# T1 construct: also called variant 33
# T1 sequence (looked up): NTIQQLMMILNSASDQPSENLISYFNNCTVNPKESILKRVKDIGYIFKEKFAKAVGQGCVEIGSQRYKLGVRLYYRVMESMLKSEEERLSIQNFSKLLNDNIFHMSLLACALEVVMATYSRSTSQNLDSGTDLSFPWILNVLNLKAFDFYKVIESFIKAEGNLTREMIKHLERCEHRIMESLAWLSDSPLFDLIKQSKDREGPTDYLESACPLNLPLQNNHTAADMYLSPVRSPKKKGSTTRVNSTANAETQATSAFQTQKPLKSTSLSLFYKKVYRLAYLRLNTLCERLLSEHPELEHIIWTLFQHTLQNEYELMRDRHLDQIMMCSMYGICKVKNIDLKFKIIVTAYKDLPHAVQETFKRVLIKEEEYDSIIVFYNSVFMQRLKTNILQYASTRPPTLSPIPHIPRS
# T2: Rb^P S588F (human, UniProt P06400 380-788, S588F)
# T2 construct: also called variant 34
# T2 sequence (looked up): T1 sequence (looked up) with Y206H, S209F
# T3: Rb^P H673P (human, UniProt P06400 380-788, H673P)
# T3 construct: also called variant 54
# T3 sequence (looked up): T1 sequence (looked up) with Y206H, H294P
# T4: Rb^P E440K (human, UniProt P06400 380-788, E440K)
# T4 construct: also called variant 1
# T4 sequence (looked up): T1 sequence (looked up) with E61K, Y206H
# T5: Rb^P H555Y (human, UniProt P06400 380-788, H555Y)
# T5 construct: also called variant 29
# T5 sequence (looked up): T1 sequence (looked up) with H176Y, Y206H
# B1: TMR-E2F1^TD, peptide of the E2F1 transactivation domain (peptide)
# peptide: {TMR}-GEGIRDLFDCDFGDLTPLD
# notes: also called E2F^TD; source: synthetic peptide, bought: GenScript
# B2: TMR-E7^LxCxE, LxCxE peptide of the E7 oncoprotein from HPV (peptide)
# peptide: DLYCYEQLN
# modifications: also: TMR label, position not given here
# notes: source: synthetic peptide, bought: GenScript
# How the values were obtained:
# Assay in all cases: fluorescence polarisation; 25 °C; unlabeled Rb^P titrated against 1.5 nM TMR-E2F1^TD or 7.5 nM TMR-E7^LxCxE; 25 mM Tris pH 8.0, 200 mM NaCl, 1 mM DTT, 0.1% Tween-20; 2 min incubation; quadratic fit; apparent Kd for the variants, Kd for WT
# Settings in all cases: both partners purified
# Rb^P H585Y = target: T1, Rb^P H585Y
# Rb^P S588F = target: T2, Rb^P S588F
# Rb^P H673P = target: T3, Rb^P H673P
# Rb^P E440K = target: T4, Rb^P E440K
# Rb^P H555Y = target: T5, Rb^P H555Y
Binder,Kd (Rb^P H585Y) [nM],Kd (Rb^P S588F) [nM],Kd (Rb^P H673P) [nM],Kd (Rb^P E440K) [nM],Kd (Rb^P H555Y) [nM]
B1,35,36,42,12,158
B2,6,5,24,5,8
